In data set [1] the target is T1, Raji B cell line (Homo sapiens, UniProt P15391).
T1 construct: the CD19 protein is expressed on the surface of tumor cell lines of B cell origin; host or cells: Raji (human Burkitt's lymphoma B cell line)
T1 sequence (P15391 20-556): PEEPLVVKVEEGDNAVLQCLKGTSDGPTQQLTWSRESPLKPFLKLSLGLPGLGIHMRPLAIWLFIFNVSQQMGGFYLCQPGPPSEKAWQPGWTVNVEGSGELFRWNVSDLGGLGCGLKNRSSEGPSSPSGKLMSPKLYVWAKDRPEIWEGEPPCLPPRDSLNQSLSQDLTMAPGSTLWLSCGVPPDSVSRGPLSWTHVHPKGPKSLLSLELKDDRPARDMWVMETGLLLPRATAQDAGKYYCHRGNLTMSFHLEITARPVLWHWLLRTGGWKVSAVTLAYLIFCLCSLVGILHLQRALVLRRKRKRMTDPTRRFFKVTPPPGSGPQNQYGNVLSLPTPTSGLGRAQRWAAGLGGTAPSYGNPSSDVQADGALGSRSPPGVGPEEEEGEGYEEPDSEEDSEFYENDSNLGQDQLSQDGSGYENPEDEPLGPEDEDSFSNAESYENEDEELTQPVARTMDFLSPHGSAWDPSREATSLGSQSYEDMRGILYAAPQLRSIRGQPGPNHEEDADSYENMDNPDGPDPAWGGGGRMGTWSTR
The data set is described as follows: Flow cytometry binding to Raji cells. How it is done:
Binding of the CD19 HuMAbs by flow cytometry to the B cell tumor lines Raji and Daudi, or to a CHO-CD19 transfected cell line was assessed. CHO cells were transfected with an expression plasmid containing the full length cDNA encoding the transmembrane form of CD19. […] A known murine anti-CD19 antibody was used as a positive control. The cells were washed and detected by either a phycoerythrin-labeled anti-human or anti-mouse secondary antibody and analyzed by flow cytometry. The results for binding to the CHO-CD19 cell line, Daudi B cell line, Raji B cell line and an expanded binding set against the Raji B cell line are shown in FIGS. 25A, 25B, 25C and 25D, respectively. […] All results are shown as measured by the geometric mean fluorescent intensity (GMFI) of staining.
For orientation: In flow cytometry, cells or beads pass a laser one at a time.

A short description of data set [2]: Capillary isoelectric focusing. The data set is classed as physicochemical. The conditions noted are these: capillary isoelectric focusing kit assay; listed as fucosylated 21D4a.
Data set [3] can be described thus: Differential scanning calorimetry. Type of data set: physicochemical. As to conditions: 2.3 μM in PBS pH 7.4, 30 to 95° C. at 1° C./min. How it is done: The thermal stability of the anti-CD19 monoclonal antibodies were compared using calorimetric analysis of their melting temperatures.
Calorimetric measurements of melting Temperatures™ were carried out on a VP-Capillary DSC differential scanning microcalorimeter platform that is combined with an autosampler (MicroCal LLC, Northampton, Mass., USA). Sample cell volume is 0.144 mL. Denaturation data on the glycosylated and deglycosylated forms of the antibodies was obtained by heating the samples, at a concentration of 2.3 μM, from 30 to 95° C. at a rate of 1° C./min. The protein samples were present in phosphate-buffered saline (PBS) at pH 7.4. The same buffer was used in the reference cell to obtain the molar heat capacity by comparison. The observed thermograms were baseline corrected and normalized data analyzed based on a 2-state model, using the software Origin v7.0.
(In DSC, transitions show as peaks or steps in heat flow.)

A short description of data set [4]: Chemical denaturation by fluorescence spectroscopy. Type of data set: physicochemical. The conditions noted are these: guanidinium hydrochloride in PBS, 24 hours, 2 μM antibody. As to the method:
The stability of anti-CD19 monoclonal antibodies were compared by measuring the midpoint of chemical denaturation by fluorescence spectroscopy.
Fluorescence measurements of chemical denaturation were performed on a SPEX Fluorolog 3.22 with a Micromax plate reader (SPEX, Edison, N.J.). The measurements were performed on antibody samples that had been left for 24 hours to equilibrate in 16 different concentrations of guanidinium hydrochloride in PBS buffer. The measurements were made in black, low volume, non-binding surface 384-well plates (Corning, Acton, Mass.) and required 2 μM of antibody in a well volume of 12 μL Fluorescence was excited at 280 nm and the emission spectra were measured between 300 and 400 nm. The scan speed was 1 second per nm and slits were set to 5 nm bandpass. A buffer blank was performed using PBS and automatically subtracted from the data.

The values that follow come from patent US20100104509A1, “HUMAN ANTIBODIES THAT BIND CD19 AND USES THEREOF” (Medarex, Inc., priority 2006, published 2010).

Where a chain is given by its changes, count along the chain named. Numbers in names are those of the source. Where “and” joins values, the source holds several entries; their conditions need not be identical. Equal entries are not always repeated.

B1: 21D4a: human monoclonal anti-CD19 antibody, VH SEQ ID NO: 1 and VL SEQ ID NO: 9 (antibody, listed as Homo sapiens, V domains shown)
VH: EVQLVQSGAEVKKPGESLKISCKGSGYSFSSSWIGWVRQMPGKGLEWMGIIYPDDSDTRYSPSFQGQVTISADKSIRTAYLQWSSLKASDTAMYYCARHVTMIWGVIIDFWGQGTLVTVSS
VL: AIQLTQSPSSLSASVGDRVTITCRASQGISSALAWYQQKPGKAPKLLIYDASSLESGVPSRFSGSGSGTDFTLTISSLQPEDFATYYCQQFNSYPFTFGPGTKVDIK
Turning to B1, the “binding by flow cytometry (GMFI)” value in data set [1] is reported as “bound to the Raji B cell line”. Besides, the “observed pI values” in data set [2] was 8.44 pH and 8.21 pH. Further, the “Thermo Stability Tm1” value in data set [3] turned out to be 69.7 °C. The “Unfolding Midpoint” value in data set [4] came to 2.97 M.

B2: 5G7-N19K: 5G7 with N-I-S sequence starting at position 19 changed to K-I-S (antibody, V domains shown)
VH: B1 VH with S30T, S32Y, D54G, R77N, H99G, T101S, I108M, F110V, L116T
VL: B1 VL with F96W, P100Q, D105E
On to B2, for which the “binding by flow cytometry (GMFI)” value in data set [1] was “bound to the Raji B cell line”.

B3: 13F1: human monoclonal anti-CD19 antibody, VH SEQ ID NO: 6 and VL SEQ ID NO: 14 (antibody, listed as Homo sapiens, V domains shown)
VH: EVQLVQSGAEVKKPGESLQISCKGSGYTFTNYWIAWVRQMPGKGLEWMGIIYPGDSDTRYSPSFQGQVTISADKSISTAYLQWSGLKASDTAMYYCARQGYSSGWRSYYGMGVWGQGTTVTVSS
VL: B1 VL with F96H, P100Q, V104L, D105E
Turning to B3, the “binding by flow cytometry (GMFI)” value in data set [1] was “bound to the Raji B cell line”.

B4: 5G7: human monoclonal anti-CD19 antibody, VH SEQ ID NO: 5 and VL SEQ ID NO: 13 (antibody, listed as Homo sapiens, V domains shown)
VH: B1 VH with K19N, S30T, S32Y, D54G, R77N, H99G, T101S, I108M, F110V, L116T
VL: B1 VL with F96W, P100Q, D105E
Regarding B4, in data set [1], the “binding by flow cytometry (GMFI)” value is recorded as “bound to the Raji B cell line”. Besides, in data set [3], the “Thermo Stability Tm1” value came out at 68.5 °C. The “Unfolding Midpoint” value in data set [4] was found to be 2.91 M.

B5: 46E8: human monoclonal anti-CD19 antibody, VH SEQ ID NO: 7 and VL SEQ ID NO: 15 (antibody, listed as Homo sapiens, V domains shown)
VH: B3 VH
VL: B1 VL with F96H, P100Q, V104L, D105E
Turning to B5, the “Thermo Stability Tm1” value in data set [3] is 66.4 °C. For the same molecule, in data set [4], the “Aggregation Peak” value is listed as 2.16 M and the “Unfolding Midpoint” value amounted to 2.43 M.

B6: 5G7-N19Q: 5G7 with N-I-S sequence starting at position 19 changed to Q-I-S (antibody, V domains shown)
VH: B1 VH with K19Q, S30T, S32Y, D54G, R77N, H99G, T101S, I108M, F110V, L116T
VL: B1 VL with F96W, P100Q, D105E
B6: the “binding by flow cytometry (GMFI)” value in data set [1] is “bound to the Raji B cell line”.
